Here are results for seven molecules from US20050130203A1, “Novel GABAB receptor DNA sequences” (Board of Regents, The University of Texas System, priority 1998, published 2005).

One series addresses T1, GABABR1a (Mus musculus, UniProt Q9WV18).
T1 construct: GABABR1a was expressed by subcloning full-length GABABR1a into the NheI-NotI site of pcDNA3.1 or pCIneo; expressed in transfected cells; host or cells: Xenopus laevis melanophores (transient)
Kind of series: Xenopus melanophore pigment aggregation/dispersion assay, GABABR1a alone. Type of series: cell-based, murine. Conditions: melanophores transfected with GABABR1a alone; up to 1 mM.

A further series concerns the target murine GABABR1a (murine) (UniProt Q9WV18). Kind of series: cell-based or functional assay.
Series [1] has as its target T2, FLAG epitope-tagged HG20 receptor subunit (FLAG epitope fused to amino acids 52-941 of HG20) (human, UniProt O75899 52-941).
T2 construct: Expressed from SF-HG20/pcDNA3.1 in COS cells and melanophores, or from pT7TS cRNA in oocytes; For immunoprecipitation it was solubilized from membranes with digitonin; also called FLAG-HG20; SF-HG20
T2 sequence: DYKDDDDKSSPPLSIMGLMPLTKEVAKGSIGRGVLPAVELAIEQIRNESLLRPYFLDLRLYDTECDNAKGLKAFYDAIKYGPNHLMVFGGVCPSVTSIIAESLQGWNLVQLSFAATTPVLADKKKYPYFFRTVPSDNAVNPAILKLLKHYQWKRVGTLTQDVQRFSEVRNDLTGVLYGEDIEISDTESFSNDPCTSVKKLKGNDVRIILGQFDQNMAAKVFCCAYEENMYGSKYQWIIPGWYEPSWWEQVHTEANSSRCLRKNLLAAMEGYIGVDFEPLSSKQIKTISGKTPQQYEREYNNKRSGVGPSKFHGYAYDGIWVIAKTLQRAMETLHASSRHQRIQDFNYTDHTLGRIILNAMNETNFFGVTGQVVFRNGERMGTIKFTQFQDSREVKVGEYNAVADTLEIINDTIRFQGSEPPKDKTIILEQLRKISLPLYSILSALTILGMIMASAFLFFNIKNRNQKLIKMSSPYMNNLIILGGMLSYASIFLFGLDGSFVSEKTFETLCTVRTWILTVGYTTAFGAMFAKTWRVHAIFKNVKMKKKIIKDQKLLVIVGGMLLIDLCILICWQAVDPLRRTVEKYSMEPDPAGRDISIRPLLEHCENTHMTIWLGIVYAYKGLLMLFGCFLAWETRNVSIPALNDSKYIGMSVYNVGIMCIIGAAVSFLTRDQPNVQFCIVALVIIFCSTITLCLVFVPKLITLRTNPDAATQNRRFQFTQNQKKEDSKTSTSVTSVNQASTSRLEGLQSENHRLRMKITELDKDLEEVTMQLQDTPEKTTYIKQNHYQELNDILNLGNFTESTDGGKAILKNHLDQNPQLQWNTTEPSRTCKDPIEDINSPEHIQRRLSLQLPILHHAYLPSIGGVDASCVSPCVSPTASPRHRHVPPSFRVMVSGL
Briefly: co-immunoprecipitation and immunoblot. For orientation: Immunoblotting shows a protein as a band on a membrane.

Series [2] concerns the molecule itself. Briefly: [125I]CGP71872 photolabelling of COS-7 membranes, SDS-PAGE (FIG. 9).

Method for wild-type HEK293 cells: Following a 20 min incubation at 37° C., the assay was terminated by setting the cells on ice and centrifuging at 2,000 rpm for 5 min at 4° C. […] Immulon II removawells (Dynatech; Chantilly, Va.) were coated overnight with 100 μl of protein G (1 mg/ml in 0.1M NaHCO3, pH 9.0) at 4° C. Prior to use, protein G-coated plates were rinsed with PBS-gelatin-Tween (phosphate buffered saline containing 0.1% gelatin, 0.2% Tween-20) 3 times quickly, and then once for 30 minutes. […] Plates were incubated 2 hr at 37° C. or overnight at 4° C., rinsed 3 times with sodium acetate buffer, blotted dry, and then individual wells were broken off and bound radioactivity was determined in a gamma counter.

With `N[C@@H](CCC(=O)O)C(=O)O` [L-Glutamate, (L)-glutamic acid], the “pigment aggregation or dispersion response” value at GABABR1a is reported as “no pigment aggregation or dispersion response”.
Take `NCC(CC(=O)O)c1ccc(Cl)cc1` (stereo not shown) [baclofen]: the “inhibition of forskolin-stimulated cAMP synthesis” value in the series on wild-type HEK293 cells is “did not exhibit”.
In the case of `NC/C=C\C(=O)O` [cis-4-aminocrotonic acid], the “pigment aggregation or dispersion response” value at GABABR1a is “no pigment aggregation or dispersion response”.
The same measure, in the same setting: next, `O=S(=O)(O)C1CCNCC1` [piperidine-4-sulfonic acid]: “no pigment aggregation or dispersion response”.
For the molecule “HG20 as expressed in HEK293 cells (HG20 cDNA in pcDNA3.1) (from UniProt O75899 42-941)”, the reduction of forskolin-stimulated cAMP synthesis in HEK293 cells (hgb2-42 cells transfected with GABABR1a, GABA plus AOAA and nipecotic acid) in the series with murine GABABR1a (murine) is 43 % decrease.
For “HG20 as expressed in HEK293 cells (HG20 cDNA in pcDNA3.1) (from UniProt O75899 42-941) (receptor)”, in the series with murine GABABR1a (murine), the reduction of forskolin-stimulated cAMP synthesis in HEK293 cells (hgb2-42 cells transfected with GABABR1a, baclofen) is 34 % reduction; the reduction of forskolin-stimulated cAMP synthesis in HEK293 cells (rgb1a-50 cells transfected with HG20, 30 µM GABA plus AOAA and nipecotic acid) is 40 % decrease; the reduction of forskolin-stimulated cAMP synthesis in HEK293 cells (rgb1a-50 cells transfected with HG20, 30 µM baclofen) came out at 28 % reduction.

B1: murine GABABR1a (receptor)
chain: GAQTPNVTSEGCQIIHPPWEGGIRYRGLIRDQVKAINFLPVDYEIEYVCRGEREVVGPKVRKCLANGSWTDMDTPSRCVRICSKSYLTLENGKVFLTGGDLPALDGARVDFRCDPDFHLVGSSRSICSQGQWSTPKPHCQVNRTPHSERRAVYIGALFPMSGGWPGGQACQPAVEMALEDVNSRRDILPDYELKLIHHDSKCDPGQATKYLYELLYNDPIKIILMPGCSSVSTLVAEAARMWNLIVLSYGSSSPALSNRQRFPTFFRTHPSATLHNPTRVKLFEKWGWKKIATIQQTTEVFTSTLDDLEERVKEAGIEITFRQSFFSDPAVPVKNLKRQDARIIVGLFYETEARKVFCEVYKERLFGKKYVWFLIGWYADNWFKTYDPSINCTVEEMTEAVEGHITTEIVMLNPANTRSISNMTSQEFVEKLTKRLKRHPEETGGFQEAPLAYDAIWALALALNKTSGGGGRSGVRLEDFNYNNQTITDQIYRAMNSSSFEGVSGHVVFDASGSRMAWTLIEQLQGGSYKKIGYYDSTKDDLSWSKTDKWIGGSPPADQTLVIKTFRFLSQKLFISVSVLSSLGIVLAVVCLSFNIYNSHARYIQNSQPNLNNLTAVGCSLALAVVFPLGLDGYHIGRSQFPFVCQARLWLLGLGFSLGYGSMFTKIWWVHTVFTKKEEKKEWRKTLEPWKLYATVGLLVGMDVLTLAIWQIVDPLHRTIETFAKEEPKEDIDVSILPQLEHCSSKKMNTWLGIFYGYKGLLLLLGIFLAYETKSVSTEKINDHRAVGMAIYNVAVLCLITAPVTMILSSQQDAAFAFASLAIVFSSYITLVVLFVPKMRRLITRGEWQSETQDTMKTGSSTNNNEEEKSRLLEKENRELEKIIAEKEERVSELRHQLQSRQQLRSRRHPPTPPDPSGGLPRGPSEPPDRLSCDGSRVHLLYK
notes: Full-length cDNA was expressed in COS-7 cells, HEK293 cells, melanophores and oocytes; also called mgb1a; gb1a
Take B1: the binding result in series [1] and in series [2] was “binds” each time.
